Reference: the supplement of paper PMC11246515
± gives the standard deviation of the averaged measurements.

Assay: total protein half-life in vivo (active degradation + dilution); higher = more stable protein
[1] = E. coli NCM3722 delta-clpP delta-lon delta-hslV, growth: N-lim chemostat, doubling time 6 h
[2] = E. coli NCM3722 delta-clpP, growth: N-lim chemostat, doubling time 6 h
[3] = E. coli NCM3722 delta-hslV, growth: N-lim chemostat, doubling time 6 h
[4] = E. coli NCM3722 delta-lon, growth: N-lim chemostat, doubling time 6 h
[5] = E. coli NCM3722 delta-smpB, growth: N-lim chemostat, doubling time 6 h
[6] = wild type E. coli NCM3722, growth: C-lim chemostat, doubling time 3 h
[7] = wild type E. coli NCM3722, growth: C-lim chemostat, doubling time 12 h
[8] = wild type E. coli NCM3722, growth: N-lim chemostat, doubling time 12 h
[9] = wild type E. coli NCM3722, growth: P-lim chemostat, doubling time 6 h
[10] = wild type E. coli NCM3722, growth: C-lim chemostat, doubling time 6 h
[11] = wild type E. coli NCM3722, growth: N-lim chemostat, doubling time 6 h
[12] = wild type E. coli NCM3722, growth: P-lim chemostat, doubling time 12 h

MDHLPMPKFGPLAGLRVVFSGIEIAGPFAGQMFAEWGAEVIWIENVAWADTIRVQPNYPQLSRRNLHALSLNIFKDEGREAFLKLMETTDIFIEASKGPAFARRGITDEVLWQHNPKLVIAHLSGFGQYGTEEYTNLPAYNTIAQAFSGYLIQNGDVDQPMPAFPYTADYFSGLTATTAALAALHKVRETGKGESIDIAMYEVMLRMGQYFMMDYFNGGEMCPRMSKGKDPYYAGCGLYKCADGYIVMELVGITQIEECFKDIGLAHLLGTPEIPEGTQLIHRIECPYGPLVEEKLDAWLATHTIAEVKERFAELNIACAKVLTVPELESNPQYVARESITQWQTMDGRTCKGPNIMPKFKNNPGQIWRGMPSHGMDTAAILKNIGYSENDIQELVSKGLAKVED
total protein half-life in vivo [1]: 6.21 ± 0.21 h | total protein half-life in vivo [2]: 4.41 h | total protein half-life in vivo [3]: 4.77 ± 0.81 h | total protein half-life in vivo [4]: 4.71 h | total protein half-life in vivo [5]: 4.726 ± 0.00071 h | total protein half-life in vivo [6]: > 4 h | total protein half-life in vivo [7]: 13 h | total protein half-life in vivo [8]: 8.76 h | total protein half-life in vivo [9]: 6.27 h

MKPVKPPRINGRVPVLSAQEAVNYIPDEATLCVLGAGGGILEATTLITALADKYKQTQTPRNLSIISPTGLGDRADRGISPLAQEGLVKWALCGHWGQSPRISELAEQNKIIAYNYPQGVLTQTLRAAAAHQPGIISDIGIGTFVDPRQQGGKLNEVTKEDLIKLVEFDNKEYLYYKAIAPDIAFIRATTCDSEGYATFEDEVMYLDALVIAQAVHNNGGIVMMQVQKMVKKATLHPKSVRIPGYLVDIVVVDPDQTQLYGGAPVNRFISGDFTLDDSTKLSLPLNQRKLVARRALFEMRKGAVGNVGVGIADGIGLVAREEGCADDFILTVETGPIGGITSQGIAFGANVNTRAILDMTSQFDFYHGGGLDVCYLSFAEVDQHGNVGVHKFNGKIMGTGGFIDISATSKKIIFCGTLTAGSLKTEITDGKLNIVQEGRVKKFIRELPEITFSGKIALERGLDVRYITERAVFTLKEDGLHLIEIAPGVDLQKDILDKMDFTPVISPELKLMDERLFIDAAMGFVLPEAAH
total protein half-life in vivo [1]: 5.68 ± 0.1 h | total protein half-life in vivo [2]: 4.03 ± 0.058 h | total protein half-life in vivo [3]: 3.94 ± 0.05 h | total protein half-life in vivo [4]: 4.17 ± 0.1 h | total protein half-life in vivo [5]: 3.728 ± 0.031 h | total protein half-life in vivo [6]: 2.75 ± 0.29 h | total protein half-life in vivo [10]: 5.2 ± 0.61 h | total protein half-life in vivo [7]: 10.7 ± 1.1 h | total protein half-life in vivo [11]: 3.81 ± 0.14 h | total protein half-life in vivo [8]: 6.72 ± 0.91 h | total protein half-life in vivo [9]: 6.39 ± 0.56 h | total protein half-life in vivo [12]: 11.1 ± 0.4 h

MKRLRNKMTTEELAECLGVAKQTVNRWIREKGWKTEKFPGVKGGRARLILVDTQVCEFIQNTPAFHNTPMLMEAEERIAEYAPGARAPAYRQIINAIDNMTDIEQEKVAQFLSREGIRNFLARLDIDESA
total protein half-life in vivo [1]: 6.16 ± 0.29 h | total protein half-life in vivo [6]: 2.58 ± 0.081 h | total protein half-life in vivo [10]: 4.56 h | total protein half-life in vivo [7]: 7.65 ± 1 h | total protein half-life in vivo [8]: 4.62 h | total protein half-life in vivo [12]: 4.26 h

MSAEHVLTMLNEHEVKFVDLRFTDTKGKEQHVTIPAHQVNAEFFEEGKMFDGSSIGGWKGINESDMVLMPDASTAVIDPFFADSTLIIRCDILEPGTLQGYDRDPRSIAKRAEDYLRSTGIADTVLFGPEPEFFLFDDIRFGSSISGSHVAIDDIEGAWNSSTQYEGGNKGHRPAVKGGYFPVPPVDSAQDIRSEMCLVMEQMGLVVEAHHHEVATAGQNEVATRFNTMTKKADEIQIYKYVVHNVAHRFGKTATFMPKPMFGDNGSGMHCHMSLSKNGVNLFAGDKYAGLSEQALYYIGGVIKHAKAINALANPTTNSYKRLVPGYEAPVMLAYSARNRSASIRIPVVSSPKARRIEVRFPDPAANPYLCFAALLMAGLDGIKNKIHPGEAMDKNLYDLPPEEAKEIPQVAGSLEEALNELDLDREFLKAGGVFTDEAIDAYIALRREEDDRVRMTPHPVEFELYYSV [P0A9C5]
total protein half-life in vivo [1]: 5.3 ± 0.14 h | total protein half-life in vivo [2]: 4.58 ± 0.32 h | total protein half-life in vivo [3]: 4.63 ± 0.14 h | total protein half-life in vivo [4]: 5.06 ± 0.33 h | total protein half-life in vivo [5]: 4.02 ± 0.12 h | total protein half-life in vivo [6]: 3.39 ± 0.49 h | total protein half-life in vivo [10]: 6.33 ± 0.86 h | total protein half-life in vivo [7]: 11.5 ± 0.3 h | total protein half-life in vivo [11]: 4.25 ± 0.046 h | total protein half-life in vivo [8]: 7.49 ± 0.92 h | total protein half-life in vivo [9]: 5.8 ± 0.092 h | total protein half-life in vivo [12]: 12.1 ± 0.55 h

MKLRLSALALGTTLLVGCASSGTDQQGRSDPLEGFNRTMYNFNFNVLDPYIVRPVAVAWRDYVPQPARNGLSNFTGNLEEPAVMVNYFLQGDPYQGMVHFTRFFLNTILGMGGFIDVAGMANPKLQRTEPHRFGSTLGHYGVGYGPYVQLPFYGSFTLRDDGGDMADGFYPVLSWLTWPMSVGKWTLEGIETRAQLLDSDGLLRQSSDPYIMVREAYFQRHDFIANGGELKPQENPNAQAIQDDLKDIDSE
total protein half-life in vivo [1]: 6.54 ± 0.28 h | total protein half-life in vivo [2]: 6.05 ± 0.062 h | total protein half-life in vivo [5]: 5.99 ± 0.31 h | total protein half-life in vivo [6]: 3.153 ± 0.018 h | total protein half-life in vivo [10]: 6.61 ± 1.3 h | total protein half-life in vivo [7]: 13.9 ± 0.49 h | total protein half-life in vivo [11]: 6.37 ± 0.039 h | total protein half-life in vivo [8]: 12.59 ± 0.014 h | total protein half-life in vivo [9]: 5.98 ± 0.64 h | total protein half-life in vivo [12]: 13.4 ± 0.97 h

MNKLQSYFIASVLYVMTPHAFAQGTVTIYLPGEQQTLSVGPVENVVQLVTQPQLRDRLWWPGALLTDSAAKAKALKDYQHVMAQLASWEAEADDDVAATIKSVRQQLLNLNITGRLPVKLDPDFVRVDENSNPPLVGDYTLYTVQRPVTITLLGAVSGAGQLPWQAGRSVTDYLQDHPRLAGADKNNVMVITPEGETVVAPVALWNKRHVEPPPGSQLWLGFSAHVLPEKYADLNDQIVSVLTQRVPD
total protein half-life in vivo [8]: 7.71 h

MGLFDKLKSLVSDDKKDTGTIEIIAPLSGEIVNIEDVPDVVFAEKIVGDGIAIKPTGNKMVAPVDGTIGKIFETNHAFSIESDSGVELFVHFGIDTVELKGEGFKRIAEEGQRVKVGDTVIEFDLPLLEEKAKSTLTPVVISNMDEIKELIKLSGSVTVGETPVIRIKK
total protein half-life in vivo [1]: 5.14 ± 0.12 h | total protein half-life in vivo [2]: 4.93 ± 0.37 h | total protein half-life in vivo [3]: 4.53 ± 0.15 h | total protein half-life in vivo [4]: 4.82 ± 0.3 h | total protein half-life in vivo [5]: 4.415 ± 0.029 h | total protein half-life in vivo [6]: 3.29 ± 0.1 h | total protein half-life in vivo [10]: 5.34 ± 0.22 h | total protein half-life in vivo [7]: 10.6 ± 1.7 h | total protein half-life in vivo [11]: 4.48 ± 0.28 h | total protein half-life in vivo [8]: 7.87 ± 0.1 h | total protein half-life in vivo [9]: 5.64 ± 0.17 h | total protein half-life in vivo [12]: 11.1 ± 0.48 h
